Source: patent US20130267423A1, “PEPTIDE LIBRARIES FOR SCREENING AND OTHER APPLICATIONS” (priority 2010, published 2013)

How the values were obtained:
C-reactive protein (CRP) [1] = biological target: T1, C-reactive protein (CRP) (Homo sapiens, UniProt P02741); assay: Affinity measurements by surface plasmon resonance (Biacore T100, CRP immobilized on CM5 chip); assay type: binding; conditions: CRP immobilized approx. 5000 RU; peptide 5 micromolar down to 2 nM; 25° C.; FIG. 8A
T1 sequence (P02741 19-224): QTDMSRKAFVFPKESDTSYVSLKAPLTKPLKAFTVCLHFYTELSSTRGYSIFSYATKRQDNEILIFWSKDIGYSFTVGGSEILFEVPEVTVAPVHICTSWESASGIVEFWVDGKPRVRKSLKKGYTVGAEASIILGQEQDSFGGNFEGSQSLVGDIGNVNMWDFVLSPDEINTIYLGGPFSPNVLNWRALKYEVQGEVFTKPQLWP
Protocol: Affinity measurements. Affinity measurements were performed using a Biacore T100 system and research grade CM5 sensor chips (GE Heathcare). The instrument was primed with HBS-EP+ (GE Heathcare) buffer. Flow cell 1 (or 3) was used as a reference to subtract nonspecific binding, drift, and the bulk refractive index, while flow cell 2 (or 4) was immobilized with CRP following standard procedures. A 1:1 mixture of 0.4 M EDC and 0.1 M NHS was used to activate flow cell 2 (or 4), and 0.1 mg/mL CRP solution was injected. Blocking of the remaining activated groups was done with a 1 M solution of ethanolamine (pH 8.5). CRP was immobilized onto the sensor chip surface by approximately 5000 response units (RU). The instrument was then primed using running buffer (HBS-EP+). Each of the 6-mer ligand candidates identified were dissolved in HBS-EP+ buffer to produce 5 micromolar peptide stock solutions for each peptide, which were serially diluted by a factor of 2 to produce a concentration series down to 2 nM. For a given affinity measurement, these series of peptide solutions successively were injected into flow cell 2 (or 4) for 3 min of contact time, 5 min of dissociation time, and 3.5 min of stabilization time using a flow rate of 100 microliter/min at 25° C. Flow cell 2 (or 4) was regenerated by glycine 2.5 (GE Healthcare) after injection of each peptide solution.

C-reactive protein (CRP) [2] = biological target: T1, C-reactive protein (CRP); assay: Dot blot selectivity/sensitivity assay with biotinylated 6-mer peptides; assay type: binding; conditions: biotinylated 6-mer at 1 micromolar in 5% nonfat milk/TBS-T; CRP 20 micrograms to 2 ng per spot; FIG. 8B
Protocol: Dot blot selectivity/sensitivity assays in serum. […] CRP solution was prepared as 10 mg/mL stocks in PBS buffer (pH 7.4). A dilution series of CRP solution was applied to a nitrocellulose membrane, typically ranging from 20 micrograms to 2 ng per spot. The membrane was blocked at room temperature for 2 h in 5% nonfat milk/TBS-T. The membrane was then washed with TBS-T. The biotinylated 6-mer solution was prepared at 1 micromolar in 5% nonfat milk/TBS-T and incubated over the membrane for 2 h at room temperature. After washing three times with TBS-T for 10 min, 1:3000 streptavidin-HRP (Abeam) prepared in 0.5% milk/TBS-T was added to the membrane and incubated for 2 h. After washing three times with TBS-T for 10 min, the membrane was treated with chemiluminescent reagents (Amersham ECL plus Western blotting detection reagents, GE Healthcare) and then immediately developed on film.

Substance | binding affinity to CRP / response in SPR (C-reactive protein (CRP) [1]) | binding affinity to CRP / response in dot blot (C-reactive protein (CRP) [2])
WKFRYK (Synthetic Peptide Fragment) [6-mer CRP ligand candidate from focused library A screening] | highest response | highest response
LYFRRW (Synthetic Peptide Fragment) [6-mer CRP ligand candidate from focused library B screening] | highest response | highest response
